From patent US10864269B2, “Therapeutic combinations comprising anti-CD73 antibodies and uses thereof” (MedImmune Limited, priority 2014, dated 2020)

T1: native CD73, MDA-MB-231 cells (Homo sapiens, UniProt P21589)
T1 construct: native CD73 expressed on human, murine, and cynomolgus monkey cell lines; endogenous in cells; host or cells: MDA-MB-231
T1 sequence (P21589 27-549): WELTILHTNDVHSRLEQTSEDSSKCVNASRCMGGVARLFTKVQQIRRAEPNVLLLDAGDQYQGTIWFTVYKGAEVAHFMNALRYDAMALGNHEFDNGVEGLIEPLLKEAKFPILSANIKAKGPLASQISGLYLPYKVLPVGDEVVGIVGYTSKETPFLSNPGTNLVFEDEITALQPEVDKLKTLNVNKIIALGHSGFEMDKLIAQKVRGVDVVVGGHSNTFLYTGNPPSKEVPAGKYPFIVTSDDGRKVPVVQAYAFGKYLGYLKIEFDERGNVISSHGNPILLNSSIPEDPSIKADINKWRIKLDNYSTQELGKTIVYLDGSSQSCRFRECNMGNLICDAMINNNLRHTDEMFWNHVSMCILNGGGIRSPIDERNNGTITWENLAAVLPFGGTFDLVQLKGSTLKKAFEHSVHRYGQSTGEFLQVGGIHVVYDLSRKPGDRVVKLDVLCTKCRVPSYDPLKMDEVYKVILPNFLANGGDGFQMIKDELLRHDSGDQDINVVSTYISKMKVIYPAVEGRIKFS

T2: huCD73 (Homo sapiens, UniProt P21589)
T2 sequence (P21589 27-549): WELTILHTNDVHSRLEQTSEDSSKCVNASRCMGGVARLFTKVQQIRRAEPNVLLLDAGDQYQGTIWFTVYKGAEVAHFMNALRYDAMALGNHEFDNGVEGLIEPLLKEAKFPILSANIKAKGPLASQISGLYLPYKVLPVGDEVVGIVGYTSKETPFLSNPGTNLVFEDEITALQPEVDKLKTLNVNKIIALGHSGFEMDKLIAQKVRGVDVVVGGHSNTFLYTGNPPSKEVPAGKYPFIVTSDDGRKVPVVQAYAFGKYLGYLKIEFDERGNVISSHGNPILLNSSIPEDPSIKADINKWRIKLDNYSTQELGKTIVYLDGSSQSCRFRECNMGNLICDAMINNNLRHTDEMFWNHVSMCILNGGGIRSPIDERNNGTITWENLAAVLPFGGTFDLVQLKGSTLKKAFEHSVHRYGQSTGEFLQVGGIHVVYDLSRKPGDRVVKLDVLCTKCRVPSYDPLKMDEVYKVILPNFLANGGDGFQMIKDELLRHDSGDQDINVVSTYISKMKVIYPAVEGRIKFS

T3: murine CD73 (Mus musculus, UniProt Q61503)
T3 sequence (Q61503 29-551): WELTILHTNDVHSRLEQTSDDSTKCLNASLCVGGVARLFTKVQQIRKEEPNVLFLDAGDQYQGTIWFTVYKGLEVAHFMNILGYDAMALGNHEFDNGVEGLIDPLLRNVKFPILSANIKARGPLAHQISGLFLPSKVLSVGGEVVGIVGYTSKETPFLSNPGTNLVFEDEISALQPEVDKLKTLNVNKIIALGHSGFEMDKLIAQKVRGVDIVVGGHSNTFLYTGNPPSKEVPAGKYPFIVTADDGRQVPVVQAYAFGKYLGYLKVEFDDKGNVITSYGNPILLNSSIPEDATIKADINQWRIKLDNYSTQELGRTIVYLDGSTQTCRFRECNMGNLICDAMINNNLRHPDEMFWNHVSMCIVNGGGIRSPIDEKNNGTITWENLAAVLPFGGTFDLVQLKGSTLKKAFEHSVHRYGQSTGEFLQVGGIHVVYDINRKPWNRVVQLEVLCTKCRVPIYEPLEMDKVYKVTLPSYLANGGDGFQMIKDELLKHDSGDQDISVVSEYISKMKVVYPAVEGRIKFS

T4: muCD73 (Mus musculus, UniProt Q61503)
T4 sequence (Q61503 29-551): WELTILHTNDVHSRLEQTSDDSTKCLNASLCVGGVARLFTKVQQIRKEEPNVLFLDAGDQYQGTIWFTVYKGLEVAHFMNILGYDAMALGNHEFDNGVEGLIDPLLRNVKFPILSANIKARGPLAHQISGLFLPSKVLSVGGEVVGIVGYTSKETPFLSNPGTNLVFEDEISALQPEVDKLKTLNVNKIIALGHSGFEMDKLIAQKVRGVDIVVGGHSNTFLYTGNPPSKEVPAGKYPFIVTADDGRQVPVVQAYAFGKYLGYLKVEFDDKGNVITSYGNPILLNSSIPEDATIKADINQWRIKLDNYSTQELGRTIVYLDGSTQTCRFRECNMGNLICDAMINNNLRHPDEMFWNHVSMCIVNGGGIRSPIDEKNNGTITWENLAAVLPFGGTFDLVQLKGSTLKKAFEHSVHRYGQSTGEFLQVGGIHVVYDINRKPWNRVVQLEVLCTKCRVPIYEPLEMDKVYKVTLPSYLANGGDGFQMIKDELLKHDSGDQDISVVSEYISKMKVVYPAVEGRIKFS


Legend:
[1] = biological target: T1, native CD73, MDA-MB-231 cells; experiment: Flow cytometry binding to native CD73, MDA-MB-231 cells; settings: as measured by flow cytometry; read-out: KD, CD73 on the surface of MB-MDA-231 cells
Method: (§1) Binding of MEDI9447 to native CD73 expressed on human, murine, and cynomolgus monkey cell lines was characterized by flow cytometry. The cells were incubated with various concentrations of MEDI9447 and antibody binding was monitored with and fluorophore-labeled anti-human Fc antibody. A plot of the median fluorescence intensity as a function of the MEDI9447 concentration was fitted nonlinearly using a one-site binding isotherm model to calculate the equilibrium dissociation constant.
(§2) The affinity of enhanced anti-CD73 antibodies (in IgG1-TM format) to human, murine, and cynomolgus CD73 was determined by flow cytometry and surface plasmon resonsance (SPR) (Table 13). The enhanced antibodies had pM affinity to cellular and recombinant CD73 from the three species.
(§3) All flow cytometry experiments were run at 4C and reagents were prepared in PBS/1% FBS buffer. 10,000 cells were incubated with test antibody in 50 uL volume for 4 hours. Cells were washed twice and incubated in 50 uL goat anti-human IgGFc-AlexaFluor647 conjugate for 15 minutes. Cells were washed, resuspended in buffer supplemented with Dapi, and analyzed on a flow cytometer. […] For the determination of KD values, a plot of the median fluorescence intensity as a function of test antibody concentration was fitted nonlinearly using a one site binding isotherm model.

huCD73 [2] = biological target: T2, huCD73; experiment: Solution binding, human CD73; settings: as measured by solution binding
native CD73, MK-1 cells = experiment: Flow cytometry binding to native CD73, MK-1 cells; settings: as measured by flow cytometry; read-out: KD, CD73 on the surface of cynomolgus MK-1 cells
Method: as §1, §2, §3

cynomolgus CD73 = experiment: Solution binding, cynomolgus CD73; settings: as measured by solution binding
murine CD73 = biological target: T3, murine CD73; experiment: Solution binding, murine CD73; settings: as measured by solution binding
huCD73 [3] = biological target: T2, huCD73; experiment: ELISA binding of Fab variants to human CD73; settings: combinatorial Fab library clones, capture ELISA and direct ELISA
Excerpt: (§4) CD730010GL9 IgG1-TM was enhanced by screening Fab libraries comprising variant CDR sequences with single amino acid mutations. Each of the 61 positions in the six CDRs was individually randomized to 19 amino acids (all natural amino acids except Cysteine), generating a library with a theoretical diversity of 1159 unique clones (19 amino acids per position times 61 positions). Bacterial Fab fragments were produced from 4224 clones of the library and screened for binding to human and murine CD73 protein by capture ELISA (Assay 2). 180 clones with increased binding signal compared to parental CD730010 GL9 IgG1-TM were selected and the mutations in the VH or VL domain were identified by DNA sequencing. The Fab concentration in the bacterial supernatants was normalized and the binding of the normalized supernatants to human and murine CD73 protein was evaluated by direct ELISA (Assay 1). Table 11 lists selected beneficial single amino acid substitutions and their effect on binding to recombinant CD73 protein.
(§5) To further improve the affinity of the anti-CD73 antibody, several single amino acid changes which improved binding when compared to parental CD730010 GL9 were combined to create a combinatorial Fab library (Assay 4). Fab fragments of 4224 clones of the combinatorial library were produced in E. coli and screened for binding to human and murine CD73 protein by capture ELISA. […]
(§6) 384-well ELISA plates were coated with about 1.5 ng/well recombinant CD73 protein, blocked with 1% BSA/0.1% Tween20/PBS and incubating with antibody samples for 90 minutes at room temperature. […] HRP activity was detected with tetra methyl benzidine (TMB) substrate and the reaction was stopped with 1 M HCl. Plates were read at 450 nm.
as §6, with “3” for “1.5”, “sheep-anti-human Fd antibody (for screening antibodies in Fab format),” for “recombinant CD73 protein,”, “with” for “with antibody”

muCD73 = biological target: T4, muCD73; experiment: ELISA binding of Fab variants to murine CD73; settings: combinatorial Fab library clones, capture ELISA and direct ELISA
Excerpt: as §4, §5, §6
as §6, with “3” for “1.5”, “sheep-anti-human Fd antibody (for screening antibodies in Fab format),” for “recombinant CD73 protein,”, “with” for “with antibody”

Kd [1]	Kd (huCD73 [2])	Kd (cynomolgus CD73)	Kd (murine CD73)	binding to human CD73 (huCD73 [3])	binding to murine CD73 (muCD73)	Molecule	Kd (native CD73, MK-1 cells)
~0.08 nM	~0.08 nM	~0.1 nM	~1.5 nM	–	–	CD730002 2C5: IgG1 with CD730002-derived VL of SEQ ID NO: 88 and VH of SEQ ID NO: 87 (antibody, V domains shown) VH: EVQLLESGGGLVQPGGSLRLSCAASGFTFSSYAMSWVRQAPGKGLEWVSAISGSGGSTYYADSVKRRFTISRDNSKNTLYLQMNSLRAEDTAVYYCARDKGYYWYMDVWGQGTMVTVSS VL: QSVLTQPPSVSVSPGQTASITCSGDKVGDKYASWYQQKPGQSPVLVIYEDTKRLSGIPERFSGSNSGNTATLTISGTQAMDEADYYCQAWDTSFWVFGGGTKLTVL	~0.06 nM
–	–	–	–	strong binding	strong binding	G10: combinatorial library clone of CD730010 GL9; VL SEQ ID NO: 63, VH SEQ ID NO: 77 (antibody, V domains shown) VH: EVQLLESGGGLVQPGGSLRLSCAASGFTFSSYAYSWVRQAPGKGLEWVSAISGSWGRTYYADSVKGRFTISRDNSKNTLYLQMNSLRAEDTAVYYCARLGYSTIDLWGRGTLVTVSS VL: QSVLTQPPSASGTPGQRVTISCSGSLSNIGRNDVNWYQQLPGTAPKLLIYLNNQRLGGVPDRFSGSKSGTSASLAISGLQSEDEADYYCATWDDSLKGWLFGGGTKLTVL	–

Second part, the molecule before the results:

Molecule	Kd [1]	Kd (huCD73 [2])	Kd (cynomolgus CD73)	Kd (murine CD73)	binding to human CD73 (huCD73 [3])	binding to murine CD73 (muCD73)	Kd (native CD73, MK-1 cells)
C2: combinatorial library clone of CD730010 GL9; VL SEQ ID NO: 61, VH SEQ ID NO: 75 (antibody, V domains shown) VH: EVQLLESGGGLVQPGGSLRLSCAASGFTFSSYAYSWVRQAPGKGLEWVSLIWGSWGSTYYADSVKGRFTISRDNSKNTLYLQMNSLRAEDTAVYYCARLGYSTIDMWGRGTLVTVSS VL: QSVLTQPPSASGTPGQRVTISCSGSLSNIGRNPVNWYQQLPGTAPKLLIYLDNLRLGGVPDRFSGSKSGTSASLAISGLQSEDEADYYCATWDDSLKGWLFGGGTKLTVL	–	–	–	–	strong binding	strong binding	–
D3: combinatorial library clone of CD730010 GL9; VL SEQ ID NO: 62, VH SEQ ID NO: 76 (antibody, V domains shown) VH: EVQLLESGGGLVQPGGSLRLSCAASGFTFSSYAYSWVRQAPGKGLEWVSAISGSGGRTYYADSVKGRFTISRDNSKNTLYLQMNSLRAEDTAVYYCARLGYSTIDLWGRGTLVTVSS VL: QSVLTQPPSASGTPGQRVTISCSGSLSNIGRNPVNWYQQLPGTAPKLLIYLDNLRLSGVPDRFSGSKSGTSASLAISGLQSEDEADYYCATWDDSLIGWLFGGGTKLTVL	–	–	–	–	strong binding	strong binding	–
